{"source": "patent US20230102344A1", "about": "(MARENGO THERAPEUTICS, published 2023)", "binders": {"B1": {"name": "BJM0387 (bispecific antibody, not shown: a dimerising Fc or GST; large carriers)", "heavy": "QVQLVQSGAEVKKPGSSVKVSCKASGYSFTTYYIHWVRQAPGQGLEWMGWFFPGSGNIKYNEKFKGRVTITADTSTSTAYMELSSLRSEDTAVYYCAGSYYSYDVLDYWGQGTTVTVSSGGGGSGGGGSGGGGSGGGGSDIQMTQSPSFLSASVGDRVTITCKASQNVGINVVWHQQKPGKAPKALIYSSSHRYSGVPSRFSGSGSGTEFTLTISSLQPEDFATYFCQQFKSYPLTFGQGTKLEIKGGGGSQVQLVQSGAEVKKPGSSVKVSCKASGYTFTDYNMHWVRQAPGQGLEWIGYIYPYNGGTGYNQKFKSKATITADESTNTAYMELSSLRSEDTAVYYCARGRPAMDYWGQGTLVTVSS", "light": "DIQMTQSPSSLSASVGDRVTITCRASESVDNYGISFMNWFQQKPGKAPKLLIYAASNQGSGVPSRFSGSGSGTDFTLTISSLQPDDFATYYCQQSKEVPWTFGQGTKVEIK", "notes": "also called anti-CD33×TCRvβ antibody BJM0387"}, "B2": {"name": "BJM0898 (antibody, V domains shown)", "VH": "QVQLVQSGAEVKKPGSSVKVSCKASGTDFKLTYIHWVRQAPGQGLEWMGRIFPGSGNVKYNEKFKGRVTITADTSTSTAYMELSSLRSEDTAVYYCAVSYYSYDVLDYWGQGTTVTVSS", "VL": "DIQMTQSPSFLSASVGDRVTITCKASQNVDNRVAWYQQKPGKAPKALIYSSSHRYKGVPSRFSGSGSGTEFTLTISSLQPEDFATYFCQQFKSYPLTFGQGTKLEIK"}, "B3": {"name": "BJM0900 (antibody, V domains shown)", "VH": "B2 VH with T27H, K30R, F52S, P53A", "VL": "B2 VL with D30A, N31D"}, "B4": {"name": "BKM0140 (scFv)", "scFv": "EIQLLESGGGLVQPGGSLRLSCAVSGFSITTTGYHWNWVRQAPGKGLEWVGYIYSSGSTSYNPSLKSRFTISRDTSKNTFYLQMNSLRAEDTAVYYCARGDWHYFDYWGQGTMVTVSSGGGGSGGGGSGGGGSGGGGSSSETTQPPSVSVSPGQTASITCSGEKLSDKYVHWYQQKPGQSPVMVIYENDRRPSGIPERFSGSNSGNTATLTISGTQAMDEADYFCQFWASTNSAVFGGGTQLTVL", "notes": "also called BJM0407 VL-D92A"}, "B5": {"name": "BKM0141 (scFv)", "scFv": "B4 scFv with A229D, N232A", "notes": "also called BJM0407 VL-N95A"}, "B6": {"name": "BKM0145 (scFv)", "scFv": "B4 scFv with N62A, N232A", "notes": "also called BJM0407 VH-N60A-VL-D92A-N95A"}, "B7": {"name": "BKM0143 (scFv)", "scFv": "B4 scFv with N62A, A229D", "notes": "also called BJM0407 VH-N60A"}, "B8": {"name": "BJM1079 (scFv)", "scFv": "EIQLLESGGGLVQPGGSLRLSCAVSGFSITTTGYHWNWVRQAPGKGLEWVGYIYSSGSTSYNPSLKSRFTISRDTSKNTFYLQMNSLRAEDTAVYYCARGDWHYFDYWGQGTMVTVSSGGGGSGGGGSGGGGSGGGGSDSVTTQSPLSLPVTLGQPASISCSGEKLSDKYVHWYQQRPGQSPRMLIYENDRRPSGVPDRFSGSNSGNDATLKISRVEAEDVGVYFCQFWDSTNSAVFGGGTKVEIK", "notes": "only 'BJM0411 Parental'; also called BJM0411 Parental"}, "B9": {"name": "BKM0139 (scFv)", "scFv": "B8 scFv with D230A", "notes": "also called BJM0411 VL-D92A"}, "B10": {"name": "BKM0144 (scFv)", "scFv": "B8 scFv with N62A, D230A, N233A", "notes": "also called BJM0411 VH-N60A-VL-D92A-N95A"}, "B11": {"name": "BKM0138 (scFv)", "scFv": "B8 scFv with N233A", "notes": "also called BJM0411 VL-N95A"}, "B12": {"name": "BKM0142 (scFv)", "scFv": "B8 scFv with N62A", "notes": "also called BJM0411 VH-N60A"}, "B13": {"name": "BJM1078 (antibody, V domains shown)", "VH": "EIQLLESGGGLVQPGGSLRLSCAVSGFSITTTGYHWNWVRQAPGKGLEWVGYIYSSGSTSYNPSLKSRFTISRDTSKNTFYLQMNSLRAEDTAVYYCARGDWHYFDYWGQGTMVTVSS", "VL": "SSETTQPPSVSVSPGQTASITCSGEKLSDKYVHWYQQKPGQSPVMVIYENDRRPSGIPERFSGSNSGNTATLTISGTQAMDEADYFCQFWDSTNSAVFGGGTQLTVL", "notes": "only 'BJM0407 Parental'; also called BJM0407 Parental"}}, "note": "Substitutions are numbered along the chain they refer to. Names and notes keep the numbering of the source."}
{"biological_target": "T1, CD33 expressed on cells (MOLM-13, MV411, HL60) (human, UniProt P20138 18-364)", "T1 construct": "whole, on cells; also called CD33+ MOLM-13 cells; CD33-expressing MOLM-13 cells", "T1 sequence (P20138 18-364)": "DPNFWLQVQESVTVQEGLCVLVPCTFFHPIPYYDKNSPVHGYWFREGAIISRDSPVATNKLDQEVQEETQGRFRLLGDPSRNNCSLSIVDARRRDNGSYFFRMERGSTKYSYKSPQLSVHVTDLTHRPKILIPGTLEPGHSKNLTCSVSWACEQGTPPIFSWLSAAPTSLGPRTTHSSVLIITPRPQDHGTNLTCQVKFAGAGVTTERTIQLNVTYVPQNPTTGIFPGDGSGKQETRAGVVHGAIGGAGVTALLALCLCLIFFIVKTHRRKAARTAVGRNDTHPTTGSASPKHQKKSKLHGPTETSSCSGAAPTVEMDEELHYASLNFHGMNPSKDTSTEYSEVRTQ", "experiment": "binding to CD33+ MOLM-13 cells (cell binding assay)"}
{"binder": "B1", "binding result": "binds"}
{"biological_target": "T2, human TCRvβ (BIM0444) (human)", "T2 construct": "also called human TCRβvP; human TCRvβ 6-5", "T2 sequence (A0A0K0K1A5 22-114)": "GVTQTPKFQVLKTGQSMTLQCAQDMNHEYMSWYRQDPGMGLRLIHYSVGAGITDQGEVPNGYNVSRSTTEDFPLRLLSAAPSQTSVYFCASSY", "experiment": "SPR (Biacore): antibody captured via anti-human Fc on CM5, BIM0444 as analyte, 1:1 fit", "units": {"Kd": "nM"}}
{"binder": "B2", "Kd": 11}
{"binder": "B3", "Kd": 2.7}
{"biological_target": "T3, Human NKp30 (BKM0179) (human, UniProt O14931 19-135, limits assumed)", "T3 sequence (looked up)": "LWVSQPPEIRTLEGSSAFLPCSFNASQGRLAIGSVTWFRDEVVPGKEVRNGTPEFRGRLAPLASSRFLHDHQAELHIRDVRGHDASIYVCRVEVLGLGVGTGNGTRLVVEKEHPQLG", "experiment": "SPR (Biacore T200): human NKp30 BKM0179 captured via anti-mouse Fc on CM5, antibody as analyte, 1:1 fit", "units": {"Kd": "nM"}}
{"binder": "B4", "Kd": 3.3}
{"binder": "B5", "Kd": 3}
{"binder": "B6", "Kd": 4.2}
{"binder": "B7", "Kd": 1.45}
{"binder": "B8", "Kd": 1.26}
{"binder": "B9", "Kd": 3.2}
{"binder": "B10", "Kd": 6.4}
{"binder": "B11", "Kd": 3.2}
{"binder": "B12", "Kd": 1.28}
{"binder": "B13", "Kd": 1.48}
